In publication PMC12846707:

Legend:
[1] = biological target: Recombinant C4b α chain (pig); assay: SPR; Biacore 8K, single-cycle; C4bα and C4bβ covalently immobilised on CM5 chip (about 1500 RU); CR1-like fragments or mutant as mobile phase, 1.56 × 10^-2 to 4 μM; 25 °C; 10 mM HEPES pH 7.4, 150 mM NaCl, 0.05% Tween-20; apparent KD = kd/ka
[2] = biological target: Recombinant C4b β chain (pig); assay: as above

Kd [1]: 271 nM
Kd [2]: 1200 nM
Substance: 118I mutant of CR1-like CCPs 1-3 (domain or fragment)
